The source of these data is US20250313602A1 (published 2025).

The target in assay [1] is T1, human IL-2Rβ protein (10696-H05H, Sino Biological) (human, UniProt P14784 27-239).
T1 chain: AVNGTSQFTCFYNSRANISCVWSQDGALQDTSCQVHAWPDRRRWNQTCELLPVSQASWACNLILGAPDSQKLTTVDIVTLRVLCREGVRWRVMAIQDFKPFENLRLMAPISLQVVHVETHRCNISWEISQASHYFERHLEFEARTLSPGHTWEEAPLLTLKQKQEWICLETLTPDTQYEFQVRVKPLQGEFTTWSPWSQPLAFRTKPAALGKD
Nature of the assay: ELISA.

For assay [2], the target named is T2, human IL-2Rα protein (10165-H08H, Sino Biological) (human, UniProt P01589 22-213).
T2 chain: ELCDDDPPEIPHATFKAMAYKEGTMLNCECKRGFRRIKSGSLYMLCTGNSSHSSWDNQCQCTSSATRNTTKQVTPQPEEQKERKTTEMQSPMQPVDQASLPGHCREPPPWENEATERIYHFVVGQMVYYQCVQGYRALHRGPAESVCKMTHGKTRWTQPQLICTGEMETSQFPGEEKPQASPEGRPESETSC
Nature of the assay: ELISA. On the technique in general: In an ELISA, binding on a coated surface is turned into a signal by an enzyme label.

B1: IL-2-Fc fusion protein (Fc fusion)
chain: APTSSSTKKTQLQLEHLLLDLQMILNGINNYKNPKLTAMLTFKFYMPKKATELKHLQCLEEELKPLEEVLNLAQSKNFHFDPRDVVSNINVFVLELKGSETTFMCEYADETATIVEFLNRWITFCQSIISTLTGGGGSGGGGSGGGGSEPKSCDKTHTCPPCPAPEAAGGPSVFLFPPKPKDTLYITREPEVTCVVVDVSHEDPEVKFNWYVDGVEVHNAKTKPREEQYNSTYRVVSVLTVLHQDWLNGKEYKCKVSNKALPAPIEKTISKAKGQPREPQVYTLPPSREEMTKNQVSLTCLVKGFYPSDIAVEWESNGQPENNYKTTPPVLDSDGSFFLYSKLTVDKSRWQQGNVFSCSVMHEALHNHYTQKSLSLSPK
For B1, the values for the EC50 in assay [1] and in assay [2] were 94 nM and 3.06 nM, respectively.

Usually EC50 stands for the concentration that produces a half-maximal response. Low readings indicate a more potent agent, high ones a less potent agent.
